For five substances, stoichiometry N results are on record in article PMC8531759.

What all share (assay): SEC; Sephacryl S-400R in buffer C (20 mM Na-phosphate pH 7.4, 100 mM NaCl, 0.05% dodecyl beta-maltoside); absorbance at 280 nm; apparent molecular weight by comparison to globular protein standards; self-association, hexamer
Assay [1] has as its target AbSGR-h D34N mutant (Anaerolineae bacterium SM23_63).
Assay [2] concerns the target AbSGR-h D62N mutant (Anaerolineae bacterium SM23_63).
Assay [3] concerns the target AbSGR-h H32A mutant (Anaerolineae bacterium SM23_63).
The target in assay [4] is AbSGR-h T36A mutant (Anaerolineae bacterium SM23_63).
Assay [5] deals with Anaerolineae bacterium SM23_63 SGR homolog (AbSGR-h), wild-type (Anaerolineae bacterium SM23_63).

In general, stoichiometry N refers to a count of units in the complex or per binding partner. Regarding AbSGR-h D34N mutant (enzyme), the stoichiometry N in assay [1] stood at 6.
Regarding AbSGR-h D62N mutant (enzyme), in assay [2], the stoichiometry N is 6.
For AbSGR-h H32A mutant (enzyme), the stoichiometry N in assay [3] amounted to 6.
Consider AbSGR-h T36A mutant (enzyme), for which the stoichiometry N in assay [4] was 6.
In the case of “Anaerolineae bacterium SM23_63 SGR homolog (AbSGR-h), wild-type (enzyme)”, the stoichiometry N in assay [5] came to 6.
